According to paper PMC11075285 (2024):

B1: hIL-6Rα on hIL-6Rα-transfected HEK293T cells (receptor)
chain: LAPRRCPAQEVARGVLTSLPGDSVTLTCPGVEPEDNATVHWVLRKPAAGSHPSRWAGMGRRLLLRSVQLHDSGNYSCYRAGRPAGTVHLLVDVPPEEPQLSCFRKSPLSNVVCEWGPRSTPSLTTKAVLLVRKFQNSPAEDFQEPCQYSQESQKFSCQLAVPEGDSSFYIVSMCVASSVGSKFSKTQTFQGCGILQPDPPANITVTAVARNPRWLSVTWQDPHSWNSSFYRLRFELRYRAERSKTFTTWMVKDLQHHCVIHDAWSGLRHVVQLRAQEEFGQGEWSEWSPEAMGTPWTESRSPPAENEVSTPMQALTTNKDDDNILFRDSANATSLPVQDSSSVPLPTFLVAGGSLAFGTLLCIAIVLRFKKTWKLRALKEGKTSMHPPYSLGQLVPERPRPTPVLVPLISPPVSPSSLGSDNTSSHNRPDARDPRSPYDISNTDYFFPR
**Q.** With B1 as the binder, how does the Kd (NEF172) read?
**A.** Its Kd is 10.9 nM.

**Q.** What about the Kd (NEF163) of the same binder?
**A.** The Kd was 3.5 nM.

**Q.** What about the Kd (NEF108) of the same binder?
**A.** The Kd was 5.3 nM.
